{
  "source": "paper PMC7555924",
  "origin": "cited, not measured here",
  "key": {"[1]": {"target": "Cys1 (UniProt position 1, -----CGVPAI)", "conditions": "fully reduced (all disulfides cleaved), molten globule-like conformation"}, "[2]": {"target": "Cys95 (UniProt position 121, SKYPNCAYKTT)", "conditions": "fully reduced (all disulfides cleaved), molten globule-like conformation"}, "[3]": {"target": "Cys75 (UniProt position 99, FGDELCKVASL)", "conditions": "fully reduced (all disulfides cleaved), molten globule-like conformation"}, "[4]": {"target": "Cys47 (UniProt position 48, SLKASCLYGQL)", "conditions": "not stated (the Cys47 thiolate is described as ion-paired with Lys54)"}, "[5]": {"target": "Cys94 (UniProt position 94, GSRNLCNIPCS)", "conditions": "fully reduced (all disulfides cleaved), molten globule-like conformation"}},
  "data": [
    {"substance": "Chymotrypsinogen A (reduced, rChTg) (Bos taurus)", "values": [
      {"measurement": "pKa", "setting": "[1]", "value": 8.1}
    ]},
    {"substance": "Ribonuclease A (reduced, rRNase) (Bos taurus)", "values": [
      {"measurement": "pKa", "setting": "[2]", "value": 7.9}
    ]},
    {"substance": "Serum albumin (reduced, rBSA) (Bos taurus)", "values": [
      {"measurement": "pKa", "setting": "[3]", "value": 6.6}
    ]},
    {"substance": "Glutathione S-transferase P1-1 (GSTP1-1) (Homo sapiens)", "values": [
      {"measurement": "pKa", "setting": "[4]", "value": 3.5}
    ]},
    {"substance": "Lysozyme C (reduced, rLyz) (Gallus gallus)", "values": [
      {"measurement": "pKa", "setting": "[5]", "value": 6.6}
    ]}
  ]
}
